Consider 2 molecules from patent US5571894, “Recombinant antibodies specific for a growth factor receptor” (Ciba-Geigy Corporation, dated 1996).

Assay [1] deals with T1, human c-erbB-2 protein (human, UniProt P04626). Nature of the assay: flow cytometry on SKBR3 cells. On the technique in general: Flow cytometry measures light scatter and fluorescence of single cells or particles in a stream.
Assay [2] deals with 185 kD c-erbB-2 protein from SKBR3 cell lysates (human, UniProt P04626). Put plainly: immunoprecipitation from SKBR3 extract, blot detected with antiserum 21N.
The target of assay [3] is T1, human c-erbB-2 protein. Nature of the assay: immunofluorescent staining of fixed HC11 cells transfected with human c-erbB-2 (clone R1#11), non-transfected HC11 as control; screen of hybridoma supernatants.

B1: mouse monoclonal antibody FWP51 (antibody, V domains shown)
VH: QVQLQQSGAELVRPGTSVKLSCKASDYTFTSYWMNWVKQRPGQGLEWIGMIDPSDSETQYNQMFKDKAALTVDKSSNTAYMQLSSLTSEDSAVYYCAKGGASGDWYFDVWGQGTTVTVSS
VL: DIQLTQSPSSLSASLGGEVTITCKASQDIKKYIAWYQHKPGKSPRLLIHYTSVLQPGIPSRFSGSGSGRDYSFSIHNLEPEDIATYYCLHYDYLYTFGGGTKLEI
In the case of B1, the binding result in assay [1] and in assay [2] was “binds” throughout.

B2: mouse monoclonal antibody FRP5 (antibody, V domains shown)
VH: QVQLQQSGPELKKPGETVKISCKASGYPFTNYGMNWVKQAPGQGLKWMGWINTSTGESTFADDFKGRFDFSLETSANTAYLQINNLKSEDMATYFCARWEVYHGYVPYWGQGTTVTVSS
VL: DIQLTQSHKFLSTSVGDRVSITCKASQDVYNAVAWYQQKPGQSPKLLIYSASSRYTGVPSRFTGSGSGPDFTFTISSVQAEDLAVYFCQQHFRTPFTFGSGTKLEI
Consider B2, for which the binding result in assay [2] and in assay [3] was “binds” in each case.
